Values quoted from earlier work, collected in paper PMC2712931.

Biological target: Pex5 (UniProt P50542)

Kd: 2750 nM
Substance: Pex14 (from UniProt O75381)
